Changes are numbered by the printed parent chain. Numbers in names are those of the source. One block for each binder: values may come before it.
Columns and labels:
HELQ(K365M) [1] = molecular target: T1, HELQ(K365M) (human, UniProt Q8TDG4 1-1101, K365M); assay: EMSA; 2 mM ATP, 2 mM Mg2+; EMSA: 25 mM Tris-HCl pH 8.0, 2 mM ATP, 2 mM MgCl2, 1 mM DTT, 50 mM NaCl, 0.1 mg/ml BSA, 25 nM DNA, 10 min 37 C (20 min for RAD51 +/- HELQ); single-molecule at room temperature in similar buffer; conditions: protein: recombinant, tags: C-terminal Flag, N-terminal MBP removed with PreScission
T1 sequence: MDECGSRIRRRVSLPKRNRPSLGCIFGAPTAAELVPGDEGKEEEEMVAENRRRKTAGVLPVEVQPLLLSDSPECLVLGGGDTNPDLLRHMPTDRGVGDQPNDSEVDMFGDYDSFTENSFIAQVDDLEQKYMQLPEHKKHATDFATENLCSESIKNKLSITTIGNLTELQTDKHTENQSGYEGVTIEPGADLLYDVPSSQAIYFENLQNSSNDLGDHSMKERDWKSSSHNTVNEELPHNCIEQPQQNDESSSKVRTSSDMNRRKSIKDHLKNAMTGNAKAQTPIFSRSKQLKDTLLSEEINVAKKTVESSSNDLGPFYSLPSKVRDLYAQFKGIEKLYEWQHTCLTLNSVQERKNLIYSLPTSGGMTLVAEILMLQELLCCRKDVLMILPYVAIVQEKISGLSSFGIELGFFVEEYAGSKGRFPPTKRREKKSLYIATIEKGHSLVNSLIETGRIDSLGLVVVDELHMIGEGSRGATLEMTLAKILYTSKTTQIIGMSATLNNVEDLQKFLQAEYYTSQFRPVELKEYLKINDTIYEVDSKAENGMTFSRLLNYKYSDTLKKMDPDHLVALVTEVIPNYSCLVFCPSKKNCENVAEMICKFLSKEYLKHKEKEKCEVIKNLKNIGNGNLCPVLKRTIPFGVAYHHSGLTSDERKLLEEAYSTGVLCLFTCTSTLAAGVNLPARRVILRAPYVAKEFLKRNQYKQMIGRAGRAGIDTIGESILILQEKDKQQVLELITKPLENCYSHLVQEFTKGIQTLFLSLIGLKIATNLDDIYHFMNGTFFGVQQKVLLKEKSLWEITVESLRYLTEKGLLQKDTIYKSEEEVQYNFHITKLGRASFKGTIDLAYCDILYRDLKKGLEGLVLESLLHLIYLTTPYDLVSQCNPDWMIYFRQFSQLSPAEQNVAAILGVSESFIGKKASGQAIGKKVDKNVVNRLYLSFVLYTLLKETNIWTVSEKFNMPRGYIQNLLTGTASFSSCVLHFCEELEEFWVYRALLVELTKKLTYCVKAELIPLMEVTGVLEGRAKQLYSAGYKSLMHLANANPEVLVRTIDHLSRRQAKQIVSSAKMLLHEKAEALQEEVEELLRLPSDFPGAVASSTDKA

HELQ(K365M) [2] = molecular target: T2, HELQ(K365M) (human, UniProt Q8TDG4 1-1101, K365M); assay: single-molecule imaging (optical tweezers with confocal microscopy, C-Trap); gapped λ-DNA held between beads at constant force of 50 pN; 25 nM Alx–RAD51 with or without 50 nM HELQ or HELQ(K365M) in 1× HELQ buffer (25 mM Tris-HCl pH 8.0, 2 mM MgCl2, 50 mM NaCl), 2 mM ATP, 0.2 mg/ml BSA, 1 mM DTT; room temperature; kymographs of Alx–RAD51; conditions: both partners purified
T2 construct: human HELQ helicase with the helicase-dead mutation K365M, made from pFB-MBP-HELQ-Flag by site-directed mutagenesis; also called helicase-dead HELQ; HELQ KM; source: Sf9 insect cells, purified (same procedure as wild-type HELQ); not shown: MBP, N-terminal, cleaved
T2 sequence (looked up): T1 sequence

[3] = molecular target: T3, HELQ (wild type, purified recombinant human HELQ) (human, UniProt Q8TDG4 1-1101); assay: as above; conditions: both partners purified
T3 construct: human HELQ helicase; custom HELQ ORF (GeneArt); Eluted from Flag resin with 3xFlag peptide; no removal of the Flag tag is described; also called HELQ WT; WT HELQ; source: Sf9 insect cells, purified (amylose, PreScission cleavage of MBP, anti-Flag resin); not shown: MBP, N-terminal, cleaved
T3 sequence (looked up): T1 sequence with M365K

HELQ(K365M);RPA-eGFP = HELQ(K365M);RPA-eGFP (human;human, UniProt Q8TDG4;P27694;P15927;P35244 1-1101;1-616;1-270;1-121, K365M|); assay: single-molecule oligo capture; capture on RPA-eGFP-coated lambda ssDNA; dwell time 179 s; EMSA: 25 mM Tris-HCl pH 8.0, 2 mM ATP, 2 mM MgCl2, 1 mM DTT, 50 mM NaCl, 0.1 mg/ml BSA, 25 nM DNA, 10 min 37 C (20 min for RAD51 +/- HELQ); single-molecule at room temperature in similar buffer; conditions: protein: recombinant;recombinant; tags: C-terminal Flag; N-terminal MBP removed with PreScission;eGFP; copies: 1;1;1;1; label: 5' Cy3; single strand
HELQ;RPA-eGFP [4] = molecular target: T4, HELQ;RPA-eGFP (human;human, UniProt Q8TDG4;P27694;P15927;P35244 1-1101;1-616;1-270;1-121, |); assay: single-molecule oligo capture; capture on RPA-eGFP-coated lambda ssDNA; dwell time 134 s; EMSA: 25 mM Tris-HCl pH 8.0, 2 mM ATP, 2 mM MgCl2, 1 mM DTT, 50 mM NaCl, 0.1 mg/ml BSA, 25 nM DNA, 10 min 37 C (20 min for RAD51 +/- HELQ); single-molecule at room temperature in similar buffer; conditions: protein: recombinant;recombinant; tags: C-terminal Flag; N-terminal MBP removed with PreScission;eGFP; copies: 1;1;1;1; label: 5' Cy3; single strand
HELQ(K365M);RPA-mRFP1 = HELQ(K365M);RPA-mRFP1 (human;human, UniProt Q8TDG4;P27694;P15927;P35244 1-1101;1-616;1-270;1-121, K365M|); assay: pull-down; via biotin-dT43 on streptavidin beads; RPA fusion not stated; EMSA: 25 mM Tris-HCl pH 8.0, 2 mM ATP, 2 mM MgCl2, 1 mM DTT, 50 mM NaCl, 0.1 mg/ml BSA, 25 nM DNA, 10 min 37 C (20 min for RAD51 +/- HELQ); single-molecule at room temperature in similar buffer; conditions: protein: recombinant;recombinant; tags: C-terminal Flag; N-terminal MBP removed with PreScission;mRFP1; copies: 1;1;1;1; label: Cy3 (5' in oligo list, 3' in capture assay); single strand
HELQ;RPA-mRFP1 = HELQ;RPA-mRFP1 (human;human, UniProt Q8TDG4;P27694;P15927;P35244 1-1101;1-616;1-270;1-121, |); assay: pull-down; via biotin-dT43 on streptavidin beads; 82 nM RPA, fusion not stated; EMSA: 25 mM Tris-HCl pH 8.0, 2 mM ATP, 2 mM MgCl2, 1 mM DTT, 50 mM NaCl, 0.1 mg/ml BSA, 25 nM DNA, 10 min 37 C (20 min for RAD51 +/- HELQ); single-molecule at room temperature in similar buffer; conditions: protein: recombinant;recombinant; tags: C-terminal Flag; N-terminal MBP removed with PreScission;mRFP1; copies: 1;1;1;1; label: Cy3 (5' in oligo list, 3' in capture assay); single strand
HELQ;RPA-eGFP [5] = molecular target: T4, HELQ;RPA-eGFP; assay: single-molecule oligo capture; capture on RPA-eGFP-coated lambda ssDNA; EMSA: 25 mM Tris-HCl pH 8.0, 2 mM ATP, 2 mM MgCl2, 1 mM DTT, 50 mM NaCl, 0.1 mg/ml BSA, 25 nM DNA, 10 min 37 C (20 min for RAD51 +/- HELQ); single-molecule at room temperature in similar buffer; conditions: protein: recombinant;recombinant; tags: C-terminal Flag; N-terminal MBP removed with PreScission;eGFP; copies: 1;1;1;1; label: Cy3 (5' in oligo list, 3' in capture assay); single strand

T4 sequence (P27694 whole entry, chain 2 of 3, the tested form may be a part): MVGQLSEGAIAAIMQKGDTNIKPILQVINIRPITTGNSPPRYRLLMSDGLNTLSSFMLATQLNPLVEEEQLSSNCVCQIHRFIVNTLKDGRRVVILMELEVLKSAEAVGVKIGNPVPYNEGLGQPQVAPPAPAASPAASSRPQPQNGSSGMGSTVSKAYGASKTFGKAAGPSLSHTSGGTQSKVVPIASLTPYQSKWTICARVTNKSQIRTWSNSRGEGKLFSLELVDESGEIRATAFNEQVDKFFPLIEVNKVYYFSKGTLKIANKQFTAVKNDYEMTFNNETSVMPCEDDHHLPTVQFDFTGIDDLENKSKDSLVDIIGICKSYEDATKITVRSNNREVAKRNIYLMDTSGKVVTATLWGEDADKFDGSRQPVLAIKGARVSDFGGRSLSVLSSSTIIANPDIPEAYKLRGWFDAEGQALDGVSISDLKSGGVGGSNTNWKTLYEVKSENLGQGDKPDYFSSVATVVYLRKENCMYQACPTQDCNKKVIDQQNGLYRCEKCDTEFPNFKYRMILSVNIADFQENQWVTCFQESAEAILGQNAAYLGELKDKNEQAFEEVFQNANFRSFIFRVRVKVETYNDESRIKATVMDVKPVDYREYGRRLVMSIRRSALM
T4 sequence (P15927 whole entry, chain 3 of 3, the tested form may be a part): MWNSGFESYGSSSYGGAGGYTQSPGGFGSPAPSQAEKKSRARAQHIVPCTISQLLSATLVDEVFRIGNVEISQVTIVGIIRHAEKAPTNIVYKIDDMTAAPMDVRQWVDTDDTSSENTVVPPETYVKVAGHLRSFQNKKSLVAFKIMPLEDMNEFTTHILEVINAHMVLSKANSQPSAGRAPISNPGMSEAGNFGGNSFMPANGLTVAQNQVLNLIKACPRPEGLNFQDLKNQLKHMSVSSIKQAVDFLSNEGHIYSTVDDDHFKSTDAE
T4 sequence (P35244 whole entry, chain 4 of 3, the tested form may be a part): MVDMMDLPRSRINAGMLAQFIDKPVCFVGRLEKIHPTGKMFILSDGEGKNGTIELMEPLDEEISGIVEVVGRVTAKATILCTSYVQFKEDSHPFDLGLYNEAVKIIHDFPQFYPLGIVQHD
HELQ(K365M);RPA-eGFP, sequence (P27694 whole entry, chain 2 of 3): as the sequence (P27694 whole entry, chain 2 of 3, the tested form may be a part) above
HELQ(K365M);RPA-eGFP, sequence (P15927 whole entry, chain 3 of 3): as the sequence (P15927 whole entry, chain 3 of 3, the tested form may be a part) above
HELQ(K365M);RPA-eGFP, sequence (P35244 whole entry, chain 4 of 3): as the sequence (P35244 whole entry, chain 4 of 3, the tested form may be a part) above
HELQ;RPA-mRFP1, sequence (P27694 whole entry, chain 2 of 3, the tested form may be a part): as the sequence (P27694 whole entry, chain 2 of 3, the tested form may be a part) above
HELQ;RPA-mRFP1, sequence (P15927 whole entry, chain 3 of 3, the tested form may be a part): as the sequence (P15927 whole entry, chain 3 of 3, the tested form may be a part) above
HELQ;RPA-mRFP1, sequence (P35244 whole entry, chain 4 of 3, the tested form may be a part): as the sequence (P35244 whole entry, chain 4 of 3, the tested form may be a part) above
HELQ(K365M);RPA-mRFP1, sequence (P27694 whole entry, chain 2 of 3, the tested form may be a part): as the sequence (P27694 whole entry, chain 2 of 3, the tested form may be a part) above
HELQ(K365M);RPA-mRFP1, sequence (P15927 whole entry, chain 3 of 3, the tested form may be a part): as the sequence (P15927 whole entry, chain 3 of 3, the tested form may be a part) above
HELQ(K365M);RPA-mRFP1, sequence (P35244 whole entry, chain 4 of 3, the tested form may be a part): as the sequence (P35244 whole entry, chain 4 of 3, the tested form may be a part) above

B1: ssDNA (oligo 1) (ssDNA)
DNA: AGCTACCATGCCTGCACGAATTAAGCAATTCGTAATCATGGTCATAGCT
binding result (HELQ(K365M) [1]; label: 5' FITC, single strand 49 nt): binds

B2: dsDNA (oligo 1 + oligo 2) (dsDNA)
DNA 1: B1 DNA
DNA 2: AGCTATGACCATGATTACGAATTGCTTAATTCGTGCAGGCATGGTAGCT
binding result (HELQ(K365M) [1]; label: 5' FITC on strand 1, blunt 49 bp): binds

binding result (HELQ(K365M) [2]): binds
binding result [3]: binds
B3: Alx–RAD51 (RAD51(C319S) labelled with Alexa Fluor 488 C5 maleimide) (natural protein, human, UniProt Q06609 1-339, looked up)
chain: MAMQMQLEANADTSVEEESFGPQPISRLEQCGINANDVKKLEEAGFHTVEAVAYAPKKELINIKGISEAKADKILAEAAKLVPMGFTTATEFHQRRSEIIQITTGSKELDKLLQGGIETGSITEMFGEFRTGKTQICHTLAVTCQLPIDRGGGEGKAMYIDTEGTFRPERLLAVAERYGLSGSDVLDNVAYARAFNTDHQTQLLYQASAMMVESRYALLIVDSATALYRTDYSGRGELSARQMHLARFLRMLLRLADEFGVAVVITNQVVAQVDGAAMFAADPKKPIGGNIIAHASTTRLYLRKGRGETRICKIYDSPSLPEAEAMFAINADGVGDAKD
modifications: Alexa Fluor 488 C5 maleimide label (1:1 labelling stoichiometry; labelled residue not given)
notes: human RAD51 recombinase with the mutation C319S; also called RAD51(A488); source: E. coli, purified as WT RAD51, then labelled and separated from free dye (Zeba column)

B4: lambda4 80-mer (ssDNA)
DNA: CCTGAACGACCAGGCGTCTTCGTTCATCTATCGGATCGCCACACTCACAACAATGAGTGGCAGATATAGCCTGGTGGTTC
binding result (HELQ(K365M);RPA-eGFP): binds
binding result (HELQ;RPA-eGFP [4]): binds

B5: dT79 (ssDNA)
DNA: TTTTTTTTTTTTTTTTTTTTTTTTTTTTTTTTTTTTTTTTTTTTTTTTTTTTTTTTTTTTTTTTTTTTTTTTTTTTTTT
binding result (HELQ(K365M);RPA-mRFP1): binds
binding result (HELQ;RPA-mRFP1): binds
binding result (HELQ;RPA-eGFP [5]): binds
